Data from PMC11417369, “DNA sequence and chromatin differentiate sequence-specific transcription factor binding in the human malaria parasite Plasmodium falciparum”.

T1: HDP1 homeodomain-like (Plasmodium falciparum, UniProt Q8IKH4 2990-3078)
T1 sequence: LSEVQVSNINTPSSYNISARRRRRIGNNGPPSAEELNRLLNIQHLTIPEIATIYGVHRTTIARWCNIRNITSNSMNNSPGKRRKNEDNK

T2: SIP2 D1 (Plasmodium falciparum, UniProt C6KSN9 177-235)
T2 sequence: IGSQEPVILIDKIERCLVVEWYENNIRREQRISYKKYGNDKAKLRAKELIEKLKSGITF

B1: GTGCAC_negctrl_site440 (dsDNA)
DNA 1: TTTTTTATTCCATAATATAATATGTTTTGAAATTTG
DNA 2: CAAATTTCAAAACATATTATATTATGGAATAAAAAA
B2: GTGCAC_negctrl_site308 (dsDNA)
DNA 1: TAATAATAGTACTGACATCAAAATCTTATTAAAAAT
DNA 2: ATTTTTAATAAGATTTTGATGTCAGTACTATTATTA
B3: GTGCAC_site9533 (dsDNA)
DNA 1: TTTTCTATTTAATTGGTGCACTGATATATACACATA
DNA 2: TATGTGTATATATCAGTGCACCAATTAAATAGAAAA
B4: GTGCAC_site9772 (dsDNA)
DNA 1: TATATTATCAAAATGGTGCAATAATTTCTATATTAT
DNA 2: ATAATATAGAAATTATTGCACCATTTTGATAATATA
B5: GTGCAC_site9474 (dsDNA)
DNA 1: GCCCCCAAATTATGTGTGCACTTTATATTCCTGAGA
DNA 2: TCTCAGGAATATAAAGTGCACACATAATTTGGGGGC
B6: GTGCAC_negctrl_site522 (dsDNA)
DNA 1: TTTTTTACGCATAACTTAATATGAGAATCCCTTTCT
DNA 2: AGAAAGGGATTCTCATATTAAGTTATGCGTAAAAAA
B7: GTGCAC_negctrl_site350 (dsDNA)
DNA 1: TTCACTTTTTTTTTTTTTTTTTTTTTTTTTTTTATT
DNA 2: AATAAAAAAAAAAAAAAAAAAAAAAAAAAAAGTGAA
B8: GTGCAC_site9798 (dsDNA)
DNA 1: ATCATATGTATGGTGGTGCATTATGCATGAATTTTA
DNA 2: TAAAATTCATGCATAATGCACCACCATACATATGAT
B9: GTGCAC_site10284 (dsDNA)
DNA 1: TTCTCCTAATAGTTAGTGCACTACATAACTAAGAAA
DNA 2: TTTCTTAGTTATGTAGTGCACTAACTATTAGGAGAA
B10: GTGCAC_negctrl_site493 (dsDNA)
DNA 1: TTCTCAAATATAATAAAATTATAAAGTGACCTAACT
DNA 2: AGTTAGGTCACTTTATAATTTTATTATATTTGAGAA
B11: GTGCAC_site9426 (dsDNA)
DNA 1: ACGTGTATTTATTTAGTGCACTTTATATTTTTTCTT
DNA 2: AAGAAAAAATATAAAGTGCACTAAATAAATACACGT
B12: GTGCAC_site10033 (dsDNA)
DNA 1: TTATAAAATTACTTGGTGCATTAGAATATTTCAATA
DNA 2: TATTGAAATATTCTAATGCACCAAGTAATTTTATAA
B13: GTGCAC_negctrl_site167 (dsDNA)
DNA 1: TTGTATTTACACGATCAACCAAATGGTATATAAATA
DNA 2: TATTTATATACCATTTGGTTGATCGTGTAAATACAA
B14: GTGCAC_site9920 (dsDNA)
DNA 1: ATAATTATATGATGAGTGCACAATAAAAATATCGTT
DNA 2: AACGATATTTTTATTGTGCACTCATCATATAATTAT
B15: GTGCAC_site10094 (dsDNA)
DNA 1: TATTAACAAATTTATGTGCACTGAGGACAAATATAT
DNA 2: ATATATTTGTCCTCAGTGCACATAAATTTGTTAATA
B16: GTGCAC_site10218 (dsDNA)
DNA 1: GATATATATACATGTGTGCACCATGCAACTTGTTTT
DNA 2: AAAACAAGTTGCATGGTGCACACATGTATATATATC
B17: GTGCAC_site9569 (dsDNA)
DNA 1: TATTTGTATATATGTGTGCACGTATAATCCATTAAA
DNA 2: TTTAATGGATTATACGTGCACACATATATACAAATA
B18: GTGCAC_site10202 (dsDNA)
DNA 1: AAAATGTAGAAATGGGTGCACACACATATATAATAT
DNA 2: ATATTATATATGTGTGTGCACCCATTTCTACATTTT

Each binder was assayed against T1, HDP1 homeodomain-like (assay: gcPBM; about 25 ug protein; PBS, 1% milk, 0.2 mg/ml BSA, salmon testes DNA, 0.03% Triton X-100). Settings: tags: N-terminal GST (pGEX-4T-1), kept; chain copies: 2; label: surface-attached array probe.

| Binder | binding signal |
| --- | --- |
| B1 | 6.16 ln median PBM intensity, better of two orientations |
| B2 | 5.97 ln median PBM intensity, better of two orientations |
| B3 | 10.5 ln median PBM intensity, better of two orientations |
| B4 | 10 ln median PBM intensity, better of two orientations |
| B5 | 9.62 ln median PBM intensity, better of two orientations |
| B6 | 6.33 ln median PBM intensity, better of two orientations |
| B7 | 6 ln median PBM intensity, better of two orientations |
| B8 | 10.4 ln median PBM intensity, better of two orientations |
| B9 | 11.1 ln median PBM intensity, better of two orientations |
| B10 | 6.1 ln median PBM intensity, better of two orientations |
| B11 | 11.3 ln median PBM intensity, better of two orientations |
| B12 | 11.1 ln median PBM intensity, better of two orientations |
| B13 | 6.23 ln median PBM intensity, better of two orientations |
| B14 | 9.38 ln median PBM intensity, better of two orientations |
| B15 | 10.3 ln median PBM intensity, better of two orientations |
| B16 | 9.57 ln median PBM intensity, better of two orientations |
| B17 | 9.32 ln median PBM intensity, better of two orientations |
| B18 | 9.58 ln median PBM intensity, better of two orientations |

Each binder was assayed against T2, SIP2 D1 in the same assay as above. Settings: tags: N-terminal GST (pGEX-4T-1), kept; label: surface-attached array probe.

| Binder | binding signal |
| --- | --- |
| B1 | 6.8 ln median PBM intensity, better of two orientations |
| B2 | 6.81 ln median PBM intensity, better of two orientations |
| B3 | 11.6 ln median PBM intensity, better of two orientations |
| B5 | 11.2 ln median PBM intensity, better of two orientations |
| B6 | 6.89 ln median PBM intensity, better of two orientations |
| B7 | 6.86 ln median PBM intensity, better of two orientations |
| B10 | 6.88 ln median PBM intensity, better of two orientations |
| B11 | 10.7 ln median PBM intensity, better of two orientations |
| B13 | 6.87 ln median PBM intensity, better of two orientations |
| B15 | 10.5 ln median PBM intensity, better of two orientations |
| B16 | 11.1 ln median PBM intensity, better of two orientations |
| B17 | 11.3 ln median PBM intensity, better of two orientations |
| B18 | 11.7 ln median PBM intensity, better of two orientations |

Each binder was assayed against AP2-I D3 (Plasmodium falciparum, UniProt Q8IJW6 910-1027) in the same assay as above. Settings: tags: N-terminal GST (pGEX-4T-1), kept; label: surface-attached array probe.

| Binder | binding signal |
| --- | --- |
| B4 | 12 ln median PBM intensity, better of two orientations |
| B8 | 12 ln median PBM intensity, better of two orientations |
| B9 | 12.4 ln median PBM intensity, better of two orientations |
| B12 | 12.1 ln median PBM intensity, better of two orientations |
| B14 | 11.2 ln median PBM intensity, better of two orientations |
